In paper PMC2954210, “Structure of an essential bacterial protein YeaZ (TM0874) from Thermotoga maritima at 2.5 Å resolution” (Acta Crystallographica Section F: Structural Biology and …, 2009):

Molecular target: the molecule itself
Assay: SEC-MALS; Superdex 200 column coupled with miniDAWN static light-scattering and Optilab refractive-index detectors; 20 mM Tris-HCl pH 7.9, 150 mM NaCl, 0.02% sodium azide

B1: YeaZ (TM0874) from Thermotoga maritima (natural protein, UniProt Q9WZX7 1-206, looked up)
chain: MNVLALDTSQRIRIGLRKGEDLFEISYTGEKKHAEILPVVVKKLLDELDLKVKDLDVVGVGIGPGGLTGLRVGIATVVGLVSPYDIPVAPLNSFEMTAKSCPADGVVLVARRARKGYHYCAVYLKDKGLNPLKEPSVVSDEELEEITKEFSPKIVLKDDLLISPAVLVEESERLFREKKTIHYYEIEPLYLQKSIAELNWEKKKRG
modifications: selenomethionine derivative
notes: YeaZ (TM0874), Thermotoga maritima, full-length protein, residues 1-206; Swiss-Prot Q9WZX7; Cloned into plasmid pMH4; In the crystal model residues 1-193 (chain A) and 0-187 (chain B) are ordered; residue 0 is the last residue of the His tag; also called TmYeaZ; His-tagged SeMet-TmYeaZ; source: E. coli GeneHogs, selenomethionine-containing medium, purified (nickel-chelating resin, Resource Q)
stoichiometry N: 2
